Assay results as given in a protein production outcome set (Wang et al. 2014).

Test: label from the status in PepcDB records
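Note: failed if final PepcDB status was selected cloned or expressed and not failed if soluble or beyond.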

Question: Which protein production does the source give for “MAKVVKLEPISRETTVNTNDNLLSALLDSELHVLKECGGRGMCATCHVYIKEGMESLSPINKREQRTLEVITTANATSRLACQARVLGPGVVVELPSGMYVNAVEDIESLIGRRAEQDILHPLDGRVLVEAGKLITRTMITQLKDTQVQVGQYFANTSDALEHHHHHH” here?
Answer: Its protein production is “not failed”.

Question: Which protein production does the source give for “MTTDIDLEQGGAFGYHRRSLDGSDVSVYYSDGEDVMSCYSYFYSTTGGSYEYEGDQSRKVSSVMSPSSSEIDDDDATAPPEKDCRICHLGVETSGGGAIELGCSCKDDLAVAHRQCAETWFKIKGDKTCEICQSVARNVGGANEMVGSTMEERELRNGEETAAGEGGGATVVENRWQPQRVVNLVLACMVFGFFISWIFHFHVSSSS” here?
Answer: The protein production was “failed”.

Question: With “MGKINTDPAATSGIKVLDRAVSIMLAVAERPLSLTELCDVTNLPRATAHRLATALETHNILTRTSDGKWTIGAVLSSLGA” as the sequence, how does the protein production read?
Answer: The protein production was “failed”.

Question: With “MLSIGSGKLLIGCVAGLLVLGGATLGLGIGGFADVPADSETTVGEDELEIRAVQTPTEIRPDEPLRVQLRLTNAGSETTTKQVALQLSGDGDQQSLETVATKQVEVSAAEPTNVTLTVEPEQLSSGEYTYAVAVGESSSPETTGSVAVLTPPTFVLDDTTENATIVRGTNVSIRANLTNAGAYRGVQTVRIAVDEDQNGQYTDAERLDESVYSLAGGQSQVSTATAHTTDMEPGRYQYKIATENTTATGTLSVQQPATFRVQNTTAPVNVTKGETANVSVVVKNVGDVDGTDNVTIRSDSLNTTYSRSVSLAANETTTVSIGVNTTNLSSGTHNHSLGTSTDTDPVSMTVQDSHFEVSDLDGPNVLYVGDMAVFSADVTNTGNITGTQSIQHRIDSDDDDRPEAYGVDRNVTLAPGESTRVRFEIDYTVTDSTEYPVEPLRLQTYVHGIYSEDARASTAMSVKPSWAKDGGSSSYSGSTSVSEGDRASLDEITQDKYGRHYDEVSGETKRQVEEIHERQPFADGLAAAEVRTREEIARQEYDADVKAGEKFNFTGLDIETQQKVESDFDAQFETDSGDRIESWDELANDTYETSYENLTTSRQADIRTTYQDQFE” as the sequence, how does the protein production read?
Answer: The protein production was “failed”.

Question: Which protein production does the source give for “MTTTNEQEQSRAYILAGLFTLSLRLVVGWTYFSAFWRRLVLENKLIPDSAGYIGEKFNHFLPNSIGIRPVIEYLVSTPDMLWWAMVIFTLVEGIVGLLYMLGFFTRLMSIGVFSLATGILLGSGWLGTTCLDEWQIGILGIAAGFTIFLSGGGKYSVDHLIERKFSLKKKAAWLSWLTSGELPVSAKRFANVSVAGAIVIFTLSLYTNQEFHNGVWGPLHNKSVKPKIEISDAQIENNSLSFSVYRVEGVDVYGSFLIGISLKNADGDIVLEKKGEELADFPIGNIDNKYIARVAPGKHSLVIPLGSKATLTVDDTAIGSLPKGKYELVLTDISGITWKKEIIH” here?
Answer: The protein production was “failed”.

Question: Which protein production does the source give for “MSMKRSREESQGGGNHNRFVDEGPRLNLPLTKTPELINKIESYLKVHYTCPHQQTENSSKTSTLPKSPEKLKAMNFPISTIKIGDCVFVAKNPDDIVAKFYFAKKKLLWEFLFGEPVANMPRLKSKIEIQWNDVSSFEESINSRDETGILKIELKKRPTFFTETNPQAGKHTQWKQLDYDFTGDQASYYRRHTLHFPPGVLQKNLEKLLTDSFWSKLYKVPFPVHESLYFDIGFENNNSSNGHSKTVGFNVNNGLQHDFSQVRDLKERKKIITLIGIGGVGEGEGNFSMANGGWQRNSYSHVNSLNYNTDNGLLGMQAIPPSSQVANEHYNNTQNDYTGSQFGYRMNQDEIQKMQRIGKILESQAYAVPDTQTKLTSSGMNNGPMYPPAGSYLESRLLEEWYEHTRRFQQ” here?
Answer: Its protein production is “not failed”.

Question: For “EQVQRFGDLDVHYNVFNSSFLQPNVASAVGLVRSKAQGVINVVPMEKGKPVEAAVTGSAKDLTGKVIPLEFRRVSEEGAIYNLAQFPISQRETLVFTIKVEAKGEPAQTFSFNKEIFPDE”, which protein production is on record?
Answer: The protein production was “not failed”.

Question: For “MKPNNVNNQNKRHQSRWVITSATAMILTTLTIASQAAAADDTVTTTTNEPTNSQLNTNTQVNATQVNLKADTSTSVSTIKSDQSAVAATSPTTSTGSPSEHSSSVNTNPQQQSANPASQSQATTTSESTPTTDIKHPTQTAPAQTTSASTTEPTTESNTESATDSQAKATTTDNQASKQPSQQAVPASSNSTTTEVNTQSATSSASTDDKIVTNVNQEKLVLKTNQPVVRAISRTASENINDWMPNTLLQQEVLSQLRKQNPDRTWNSAADITKADMLLLTTYYGKDTYIDGKTSYSLEGLQYATNLTTVWLNNNLNAPSGSYYSDVTDISPLANLQKLQVVNIQQNRITDISPLANLKNLTEVDAAYNHISDFSPLKGFKNLKGTFSNQFITLPPAYISADNNIATLAIDCYLPDGSKVQLKPNNGVGETVFYKNGQLYVRWYFNGAGGGNYDSNGHIYYTNMKPQQPGLTGPTFNGTTVIPMDDYYFMTAASDGNNFVVVRPYVLAATAAPITVKYVDALTGESLVTADLTLNGIVGQPYTTQRIDDELPNYDFTNIVGNASGVFTADAQTVTYYYTRKDAGDITIHMVDTNGNLVYEPQILPGKHNLGNAYNLDAPTFDHFKLHQTIGNAAGVFTTDPQSITFVYVRLDAGNITVKYQDKQGHQLKPDKTVSGSQSLGQTYTTEPLGIENYTLMTTPANATGTFTDQEQTVIYVYVRRDAGQIVVKYQDSAGNPLAPDKLLDGKEQLGVAYQTAAISIPNFYLVATPANATGTFSTDTQTVIYQYARSNAGHITVKYQDANGTTLAPDDVLTGDGQLGRPYQTSAKTIENYRLIQTPANATGQFSDQAQTVIYVYTREDAGDITVQYLDENGQQLAADSVLSGQGQLGQPYETSPLNINGYTVKSTQGNTTGTYTVQPQRVVYIYERTAGQPVTAKYQDQDGKSIHPDVVHSGYLGDNYSTEQLVIDGYTFKAVQGDVSGTFGTSAKTVTYVYTESTPTIPDTQGTVTVHYVTKDGIKLNEPTVLSGKTGTTYQTVPLTFTDHELVGQPENATGLFTADNVDVTYVYQATDTTGTDDIIDPEEPEQPTKPIKPTTPETPNEPGTTVTQPDRIKPTQPAVAVKPAATVKPTLKPAAAQASLVKTTSPVTEHSAQLPQTDEQTGKLAVILGLLLSVVTLGFYGKNRQS”, which protein production is on record?
Answer: The protein production was “failed”.

Question: With “MENQEVVLSIDAIQEPEQIKFNMSLKNQSERAIEFQFSTGQKFELVVYDSEHKERYRYSKEKMFTQAFQNLTLESGETYDFSDVWKEVPEPGTYEVKVTFKGRAENLKQVQAVQQFEVK” as the sequence, how does the protein production read?
Answer: Its protein production is “not failed”.

Question: With “MCDCLSIILLVKMKKIYLKFVDFWDGFDTISNFIVDALSIQYEVVLSNEPDYLFYSCFGTSHLEYDCIKIMFIGENIVPDFNVCDYAIGFNYIDFGDRYLRLPLYAIYDGFSNLQNKKIDVNKALDRKFCSIVVSNNKWADPIRETFFKLLSSYKKVDSGGRAWNNIGGPVDNKLDFISQYKFNIAFENSRVLGYTTEKIMEPMQVNSIPVYWGNPLVGKDFNVDSFVNAHDFDSLERLVEYIIELDSSKDKYLEMLEKPWLLDKTYLDWKQLLLNFINNIMMKSYKDAKYLVNYGHAGKYRNEQRFWGRCERKFKLQRIIEYYSQLFDRKLEHHHHHH” as the sequence, how does the protein production read?
Answer: The protein production was “failed”.

Question: With “MGHHHHHHSHMIQYIPQRPPIVMISTLVSAEKNVTETELEIPAHGLFVKDGVLHEPGLIENVAQTAAAGVGYACTLTSQPVPVGFIGAVKNLEIDYLPKVGDVLETRVEVLEEIFDMTLIKGESFVKGKRVLTCEMKIVLKK” as the sequence, how does the protein production read?
Answer: Its protein production is “failed”.

Question: With “MSTSHPISKIYFSDKKSLQKVDILLEQEGIRRDTNLDYICAMFDDDLNIIATGSCFGNTLRCLSVDHHYQGDGLLNEIVTHLINIQFERGNTHLFLYTKPDTAKFFKDLGFYEIARADKQIVFMENKKDGFSNYLKNLEKPDSECQTTAALVINANPFTLGHQYLVEKAAAENELLHLFMVSDDSSLIPFSVRKQLILAGTEHLSNICYHETGPYIISKSIFPSYFQKDQASVIESQARIDLAIFIQIAKYLGIKGRYVGEEPTSLVTGIYNQIMLQELPKQAIDCIVVPRKTYKDGPISASTVRKALKEGNEQILRELLPSTSLNYFLSPEAQPLIKKIQKADNVIHY” as the sequence, how does the protein production read?
Answer: Its protein production is “failed”.

Question: With “MSKPKIAIIVGSTRAARFADVPTQWIAKIAKSHADIDVEVVDLRDFPLPFFDEVASSAWVPSTNEVAQRWQKKVAEFDGFIFTAAEYNHGPTAVLKNAIDYAANEWNKKPAGFVGYGSVGGARAVEQLRLHAVELQMAPVKSAVHIAWGDFLAVRQGEKKLEDLDHLNQAASALVNDVAWWAKALKKARAADVVDEEIKAA” as the sequence, how does the protein production read?
Answer: Its protein production is “failed”.

Question: With “MHAPAILRQSGIDALLAGDGSPEIMVTDSPSPPVKRSKIWELSRTYHCPVIGLCLPASDLERFAKRFHFKASINNAHDLHVEAVCRVTSRNVVSETIHKYLDRLYESHIKQFDAAKTDSEVLALWETCFTNERIAGPLWAALTHKRISSEGREQIHDRVHMHMHEAVAELSATQHRLNQAEQMLKELAGQLEQIREKHVQTESRLRQQLQQAAAEIKQLQQSRRESETTRQRLETLESGQAILRMGQRLMQLTVENEQLQIKAAQADDLKQSLKNACHNLTELYHERDTLRVERDTLENLLLTLNSGSTTDTETADTTETKMAAYECILCVGGRSTLLPQYRTLARQLGLKLSHHDGGQEDALSRLPEMIYGAAAVICPTDYVSHAAYYQVKRLCRLGHKPCLLFKGTGVSSFAAALTKITSGQASINSSPVDTVETTT” as the sequence, how does the protein production read?
Answer: Its protein production is “failed”.

Question: Which protein production does the source give for “MPNMGIEKLYVSQQLTDSAAGMTFTKPQYYKYVQELSLKPKVNSASAYAENRKVDQDTQFDSCDVSINLFQMTSSQRAFMLGQSLAGGGGAIGALNDKAPWITLLYKAPIKVDDTIYYRYGVIYKTQFQPPDDDYKTTEGKPDFSQVPKISGSAQPTEWSFKDGKLEKHPWEWHVDTCDPNCPENIDDTWFNSVSIPSLVTYGSLSLSASSPKDGATGISLDTKPSLTFNNPIMNATSILLYNVSDGATVNTTTSSDSSGKIITITPSTNLVANKNYVLVVQDVTDLYGQTLDTQLIRFTTATAASLEHHHHHH” here?
Answer: Its protein production is “not failed”.

Question: For “MIISLIAALAADRVIGMENAMPWHLPADLAWFKRNTLNKPVIMGRKTFESIGRPLPGRLNIVISSQPGTDERVTWAASIEEALAFAGNAEEVMVMGGGRVYKQFLDRANRMYLTHIDAEVGGDTHFPDYEPDEWESVFSEFHDADEANSHSYCFEILERR”, which protein production is on record?
Answer: The protein production was “not failed”.

Question: Which protein production does the source give for “NFVPGMEFSMADASSIAIIGGADGPTAIFLASQLSPDLLGAIAVAAYSYMALVPIIQPPIMKALTTPEERKIKMAQLRHVGKTEKIVFPLV” here?
Answer: The protein production was “failed”.

Question: Which protein production does the source give for “MTTFLQRDDFAVTARVLGALFYYSPESHETAPLVQALLNDDWQAQWPLDAEALAPVAAMFKTHSEESLPQAWQRLFIGPYALPSPPWGSVWLDRESVLFGDSTLALRQWMRENGIQFEMQQNEPEDHFGSLLLLAAWLAENDRHHECEQLLAWHLFPWSSRFLDVFIDHAGHPFYQALGQLARLTLAQWQAQLIIPVAVKPLFR” here?
Answer: The protein production was “not failed”.

Question: With “MSILLSKTLRELIFWMAWIIIPLIMEIIPAFGGFFILVKKSFNSNREGFIGTLPEITLIIPIYNSEATLKGCIESIYNCSYPTRLIDLILVNNMSSDDSFQVFSQCQKEFCGLSMRYMNSKQGKSKALNMALFNSAGKYIIHIDSDGKLHYDAIKNMIVRFEKNPNIHCMTGAILSDIEGIEKTHKRFLKLIRRCEFFEYAQAFLAGRNFESEINSIYTLSGAFSAFRKSTILKTQLYNSKTVCEDTHITFQVRRLLKKKVYLCENSIFFVDPIENLNKLYTQRQRWQRGEIEVSHMFFKNKMNSPLGFFHNFMIRVVMYDHTFAFPRMIWYFAIIFLFFMNYPVKLVVGSLVIIYMLYVLSTFLFYLNVRIYLKEYKSIREYYKARWGYIFLMPIYNFVVFWIRFAGIINSIKIKSKWKTLTLNDEWTAFLKVIQSDFRMIGKGINKIRRLVND” as the sequence, how does the protein production read?
Answer: Its protein production is “failed”.

Question: For “RTALRTEYALRQEAQAARKHAEGILASISDGFIALDEQYRFTYVNAAAERLIASTAEELIGKVYWDVYPMMLGTKIEQAYRRAMTERVACEFESYHPPSKRWFELRVAPTNGKSISVYFRDITEQKKAEAALRDINEQLEEQV”, which protein production is on record?
Answer: The protein production was “failed”.

Question: With “SQIYASDGETELARIVPPEGNRQMVTIDQVPDTVKNAVVAAEDREFYTNPGFSITGYARAALGVITGDSSAGGGSTITQQYVKKAVVGDERSLIRKAKELVYSAKMANEWSKDEVLEAYLNTVYFGRNAYGVQAAAHAFFDKPVEELTAAEGAVLAASIQLPSQLDPWTNP” as the sequence, how does the protein production read?
Answer: Its protein production is “failed”.
